System: Gp90 D234A (DNA polymerase, exonuclease-deficient) (Pseudomonas aeruginosa phage PaP1)
Assay: SPR
Settings: SPR (Biacore 3000, SA chip, steady-state fit): 40 mM Tris-HCl pH 7.5, 10 mM DTT, 50 mM potassium glutamate, room temperature, 20-600 nM protein, ternary assays …

For “TTTGCTACAGAGTTATGGTGACGATACGTC / TGAATTCTAATGTAGTATAGTAATCCGCTCTATCGGACGTATCGTCACCATAACTCTGTAGC [30-mer(dd)/62-mer 8-oxoG primer-template]”, the Kd (30 mM Mg2+, 1 mM dATP (ternary complex, mispair), 8-oxoG at template position 35 from 5' end (28th from 3' end, first templating base), primer 3'-terminal ddC) was 0.045 µM, the Kd (30 mM Mg2+, 1 mM dCTP (ternary complex), 8-oxoG at template position 35 from 5' end (28th from 3' end, first templating base), primer 3'-terminal ddC) was 0.034 µM and the Kd (no Mg2+, no dNTP (binary complex), 8-oxoG at template position 35 from 5' end (28th from 3' end, first templating base), primer 3'-terminal ddC) was 0.116 µM.

“TTTGCTACAGAGTTATGGTGACGATACGTC / TGAATTCTAATGTAGTATAGTAATCCGCTCTATCGGACGTATCGTCACCATAACTCTGTAGC [30-mer(dd)/62-mer G primer-template]” showed a Kd (30 mM Mg2+, 1 mM dCTP (ternary complex), primer 3'-terminal dideoxycytidine (ddC, chain terminator)) of 0.011 µM and a Kd (no Mg2+, no dNTP (binary complex), primer 3'-terminal dideoxycytidine (ddC, chain terminator)) of 0.108 µM.
